From publication PMC8017708
One block for each binder: values may come before it.

Experiments:
Conditions in all cases: remark: other sources report otherwise
[1] = biological target: T1, recombinant UVR8 (wild-type) purified from Sf9 insect cells (Arabidopsis thaliana), Q9FN03; assay: SEC
T1 chain: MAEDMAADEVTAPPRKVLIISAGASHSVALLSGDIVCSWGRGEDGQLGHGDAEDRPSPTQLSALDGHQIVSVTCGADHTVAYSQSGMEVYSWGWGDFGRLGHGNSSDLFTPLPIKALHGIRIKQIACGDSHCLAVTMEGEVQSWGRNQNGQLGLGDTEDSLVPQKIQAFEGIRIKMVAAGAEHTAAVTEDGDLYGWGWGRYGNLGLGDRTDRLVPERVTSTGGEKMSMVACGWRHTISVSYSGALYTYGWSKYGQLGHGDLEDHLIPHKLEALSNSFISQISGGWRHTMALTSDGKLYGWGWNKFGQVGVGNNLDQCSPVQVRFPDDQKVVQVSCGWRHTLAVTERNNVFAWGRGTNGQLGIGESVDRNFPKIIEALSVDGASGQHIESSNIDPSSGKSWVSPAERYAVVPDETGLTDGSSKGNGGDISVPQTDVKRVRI

[2] = biological target: T2, UVR8^W285A expressed in Arabidopsis (Arabidopsis thaliana), Q9FN03; assay: cross-linking
T2 chain: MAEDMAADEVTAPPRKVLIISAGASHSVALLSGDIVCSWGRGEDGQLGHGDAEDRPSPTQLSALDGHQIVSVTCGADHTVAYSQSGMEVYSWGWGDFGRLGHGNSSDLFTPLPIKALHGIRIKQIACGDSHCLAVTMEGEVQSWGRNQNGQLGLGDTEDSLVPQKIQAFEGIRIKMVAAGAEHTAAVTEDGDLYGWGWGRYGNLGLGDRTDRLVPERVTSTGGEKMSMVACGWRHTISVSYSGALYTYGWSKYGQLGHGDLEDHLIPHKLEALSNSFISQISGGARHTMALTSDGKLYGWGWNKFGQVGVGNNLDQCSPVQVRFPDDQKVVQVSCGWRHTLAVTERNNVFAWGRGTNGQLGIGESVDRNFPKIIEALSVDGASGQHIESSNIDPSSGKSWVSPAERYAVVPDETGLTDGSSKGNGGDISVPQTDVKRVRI

[3] = biological target: T3, recombinant UVR8^W285A purified from Sf9 insect cells (Arabidopsis thaliana), Q9FN03; assay: SEC
T3 chain: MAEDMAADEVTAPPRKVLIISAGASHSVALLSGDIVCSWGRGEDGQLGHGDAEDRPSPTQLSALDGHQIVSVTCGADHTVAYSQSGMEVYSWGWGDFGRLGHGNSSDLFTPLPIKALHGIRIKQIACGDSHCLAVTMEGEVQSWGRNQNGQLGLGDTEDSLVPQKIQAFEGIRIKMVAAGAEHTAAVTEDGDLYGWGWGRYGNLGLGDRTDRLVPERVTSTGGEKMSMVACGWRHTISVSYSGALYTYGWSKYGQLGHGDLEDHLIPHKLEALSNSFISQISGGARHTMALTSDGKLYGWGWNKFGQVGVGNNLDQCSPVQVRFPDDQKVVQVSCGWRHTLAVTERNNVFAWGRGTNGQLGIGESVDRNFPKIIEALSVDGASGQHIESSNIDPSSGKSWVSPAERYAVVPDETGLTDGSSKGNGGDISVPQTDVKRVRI

stoichiometry N [1]: 2
B1: recombinant UVR8 (wild-type) purified from Sf9 insect cells, Q9FN03 1-440 (natural protein)
chain: MAEDMAADEVTAPPRKVLIISAGASHSVALLSGDIVCSWGRGEDGQLGHGDAEDRPSPTQLSALDGHQIVSVTCGADHTVAYSQSGMEVYSWGWGDFGRLGHGNSSDLFTPLPIKALHGIRIKQIACGDSHCLAVTMEGEVQSWGRNQNGQLGLGDTEDSLVPQKIQAFEGIRIKMVAAGAEHTAAVTEDGDLYGWGWGRYGNLGLGDRTDRLVPERVTSTGGEKMSMVACGWRHTISVSYSGALYTYGWSKYGQLGHGDLEDHLIPHKLEALSNSFISQISGGWRHTMALTSDGKLYGWGWNKFGQVGVGNNLDQCSPVQVRFPDDQKVVQVSCGWRHTLAVTERNNVFAWGRGTNGQLGIGESVDRNFPKIIEALSVDGASGQHIESSNIDPSSGKSWVSPAERYAVVPDETGLTDGSSKGNGGDISVPQTDVKRVRI

stoichiometry N [2]: 2
B2: UVR8^W285A expressed in Arabidopsis, Q9FN03 1-440 (natural protein)
chain: MAEDMAADEVTAPPRKVLIISAGASHSVALLSGDIVCSWGRGEDGQLGHGDAEDRPSPTQLSALDGHQIVSVTCGADHTVAYSQSGMEVYSWGWGDFGRLGHGNSSDLFTPLPIKALHGIRIKQIACGDSHCLAVTMEGEVQSWGRNQNGQLGLGDTEDSLVPQKIQAFEGIRIKMVAAGAEHTAAVTEDGDLYGWGWGRYGNLGLGDRTDRLVPERVTSTGGEKMSMVACGWRHTISVSYSGALYTYGWSKYGQLGHGDLEDHLIPHKLEALSNSFISQISGGARHTMALTSDGKLYGWGWNKFGQVGVGNNLDQCSPVQVRFPDDQKVVQVSCGWRHTLAVTERNNVFAWGRGTNGQLGIGESVDRNFPKIIEALSVDGASGQHIESSNIDPSSGKSWVSPAERYAVVPDETGLTDGSSKGNGGDISVPQTDVKRVRI

stoichiometry N [3]: 2
B3: recombinant UVR8^W285A purified from Sf9 insect cells, Q9FN03 1-440 (natural protein)
chain: MAEDMAADEVTAPPRKVLIISAGASHSVALLSGDIVCSWGRGEDGQLGHGDAEDRPSPTQLSALDGHQIVSVTCGADHTVAYSQSGMEVYSWGWGDFGRLGHGNSSDLFTPLPIKALHGIRIKQIACGDSHCLAVTMEGEVQSWGRNQNGQLGLGDTEDSLVPQKIQAFEGIRIKMVAAGAEHTAAVTEDGDLYGWGWGRYGNLGLGDRTDRLVPERVTSTGGEKMSMVACGWRHTISVSYSGALYTYGWSKYGQLGHGDLEDHLIPHKLEALSNSFISQISGGARHTMALTSDGKLYGWGWNKFGQVGVGNNLDQCSPVQVRFPDDQKVVQVSCGWRHTLAVTERNNVFAWGRGTNGQLGIGESVDRNFPKIIEALSVDGASGQHIESSNIDPSSGKSWVSPAERYAVVPDETGLTDGSSKGNGGDISVPQTDVKRVRI
